For one substance, EC50 (pM), ELK1 luciferase reporter in L6 cells transfected with mouse FGFR4 and β-klotho and Emax (fold potentiation), ELK1 luciferase reporter in L6 cells transfected with mouse FGFR4 and β-klotho (fold potentiation) results are on record in patent publication US20200390859A1.

The target in the test is mouse FGFR4/β-klotho complex co-expressed in rat L6 myoblast cells (mouse) (UniProt Q03142). As to the kind of experiment: cell-based or functional assay.
mouse FGFR4/β-klotho complex co-expressed in rat L6 myoblast cells (mouse), sequence (Q03142 17-799, chain 1 of 2): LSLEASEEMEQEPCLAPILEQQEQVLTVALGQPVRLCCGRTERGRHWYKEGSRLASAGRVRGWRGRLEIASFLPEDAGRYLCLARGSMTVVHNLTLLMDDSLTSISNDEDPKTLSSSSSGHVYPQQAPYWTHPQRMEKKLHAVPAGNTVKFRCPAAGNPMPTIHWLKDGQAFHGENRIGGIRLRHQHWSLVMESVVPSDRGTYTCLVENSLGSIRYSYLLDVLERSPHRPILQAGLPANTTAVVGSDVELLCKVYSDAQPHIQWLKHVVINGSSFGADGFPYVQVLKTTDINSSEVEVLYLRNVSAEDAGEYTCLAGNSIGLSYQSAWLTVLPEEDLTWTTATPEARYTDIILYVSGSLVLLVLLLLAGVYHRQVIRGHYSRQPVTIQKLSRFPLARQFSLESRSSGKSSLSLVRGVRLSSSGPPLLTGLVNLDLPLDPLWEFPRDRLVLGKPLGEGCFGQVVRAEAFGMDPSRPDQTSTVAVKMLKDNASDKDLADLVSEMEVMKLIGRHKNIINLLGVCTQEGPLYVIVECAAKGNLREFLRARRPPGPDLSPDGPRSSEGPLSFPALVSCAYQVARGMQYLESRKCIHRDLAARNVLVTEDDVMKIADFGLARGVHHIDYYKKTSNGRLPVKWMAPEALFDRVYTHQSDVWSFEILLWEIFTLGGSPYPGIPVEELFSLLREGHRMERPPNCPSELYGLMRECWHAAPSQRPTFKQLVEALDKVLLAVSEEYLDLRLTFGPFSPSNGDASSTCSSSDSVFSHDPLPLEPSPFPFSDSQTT
mouse FGFR4/β-klotho complex co-expressed in rat L6 myoblast cells (mouse), sequence (Q99N32 whole entry, chain 2 of 2, further chain): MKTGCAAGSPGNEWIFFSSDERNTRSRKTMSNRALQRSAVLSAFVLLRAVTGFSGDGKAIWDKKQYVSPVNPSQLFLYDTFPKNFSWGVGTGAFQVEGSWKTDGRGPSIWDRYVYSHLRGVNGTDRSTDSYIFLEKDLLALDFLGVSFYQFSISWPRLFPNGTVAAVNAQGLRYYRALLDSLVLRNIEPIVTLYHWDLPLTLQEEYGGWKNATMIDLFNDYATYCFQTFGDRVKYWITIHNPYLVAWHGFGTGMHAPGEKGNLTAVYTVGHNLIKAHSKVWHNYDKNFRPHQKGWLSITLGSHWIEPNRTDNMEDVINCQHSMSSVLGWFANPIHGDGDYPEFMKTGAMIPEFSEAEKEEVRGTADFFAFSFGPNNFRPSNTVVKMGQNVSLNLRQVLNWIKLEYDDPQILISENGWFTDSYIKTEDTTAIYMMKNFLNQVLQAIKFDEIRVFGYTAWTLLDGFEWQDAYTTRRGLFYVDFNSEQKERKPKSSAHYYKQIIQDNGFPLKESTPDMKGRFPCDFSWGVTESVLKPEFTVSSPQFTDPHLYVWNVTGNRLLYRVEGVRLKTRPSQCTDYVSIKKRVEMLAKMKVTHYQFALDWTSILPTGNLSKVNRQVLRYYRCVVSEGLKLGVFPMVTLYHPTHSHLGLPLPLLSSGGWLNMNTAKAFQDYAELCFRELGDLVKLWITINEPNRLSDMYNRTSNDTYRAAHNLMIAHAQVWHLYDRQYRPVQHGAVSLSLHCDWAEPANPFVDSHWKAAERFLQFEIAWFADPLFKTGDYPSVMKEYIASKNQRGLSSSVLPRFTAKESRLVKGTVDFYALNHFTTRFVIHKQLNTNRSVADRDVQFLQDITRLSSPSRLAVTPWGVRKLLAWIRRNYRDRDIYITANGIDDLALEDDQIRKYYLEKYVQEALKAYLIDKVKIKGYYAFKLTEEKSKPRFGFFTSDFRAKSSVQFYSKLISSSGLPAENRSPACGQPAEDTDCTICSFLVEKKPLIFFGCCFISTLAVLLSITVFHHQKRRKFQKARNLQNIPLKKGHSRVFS

Take “FGF19 (human fibroblast growth factor 19, wild type) (from UniProt O95750 25-216) (ligand)”: the EC50 (pM), ELK1 luciferase reporter in L6 cells transfected with mouse FGFR4 and β-klotho was 52.5 pM; the Emax (fold potentiation), ELK1 luciferase reporter in L6 cells transfected with mouse FGFR4 and β-klotho (fold potentiation) came out at 1.82.
